Results on one molecule are retold here after paper doi:10.1101/2025.01.28.635353 (2025).

This assay has as its target EGFR (UniProt P00533 25-1210). Kind of assay: SPR; printed as pKD […]. (In SPR one partner is held on a chip, and binding of the other changes the refractive index at the surface.)

B1: aEGFR-R1-1 (antibody, V domains shown)
VH: EVKLQQSGDETMRPGASVRMSCKAYGYTFTDYSMHWIRQRPGQGLEWIGIIIPLIDTTRYNQKFKGKATLTADTSSDTAYMELSRLTFEDSAVYYCARSYDPSGDDWFAYWGQGTLVTVSS
VL: DTVLTQSPALSVSPGERVDISCRASESVSTLLHWYQQKPGQQPTLLISLASSLESGVPARFSGSGSGTDFTLTIDPVEADDTAIYYCQESWNEPYAFGAGTKLELK
As a reminder, the Kd is the free concentration of one partner at which half of the binding sites on the other are occupied at equilibrium, for simple one-to-one binding. Lower therefore signals higher affinity. The molecule B1 displayed an equilibrium dissociation constant (Kd) of 0.126 nM.
